Measured values taken from paper PMC8393265.

Biological target: SARS-CoV-2 spike receptor-binding domain (RBD), recombinant, produced in house (SARS-CoV-2) (UniProt P0DTC2)
Test: SEC

Substance: SARS-CoV-2 spike receptor-binding domain (RBD), recombinant, produced in house (from UniProt P0DTC2) (domain or fragment)
- stoichiometry N: 3
